US20230357386A1 (EISAI R AND D MANAGEMENT, published 2023)

B1: antibody A (human anti-EphA4 monoclonal antibody) (antibody, V domains shown)
VH: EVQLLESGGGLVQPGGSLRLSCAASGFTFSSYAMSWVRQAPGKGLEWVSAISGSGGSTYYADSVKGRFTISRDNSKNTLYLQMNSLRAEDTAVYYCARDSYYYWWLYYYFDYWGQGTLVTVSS
VL: SSELTQDPAVSVALGQTVRITCQGDSLRSYYASWYQQKPGQAPVLVIYGKNNRPSGIPDRFSGSSSGNTASLTITGAQAEDEADYYCQSSYSSSYSYVFGGGTKLTVLG
notes: Human IgG2 / lambda, from a phage library scFv converted to IgG; made in Expi293F or CHOK1SV cells
B2: antibody B (human anti-EphA4 monoclonal antibody) (antibody, human IgG1, lambda, V domains shown)
VH: EVQLLESGGGLVQPGGSLRLSCAASGFTFSSFAMSWVRQAPGKGLEWVSAISGSGGSTYYADSVKGRFTISRDNSKNTLYLQMNSLRAEDTAVYYCARDDYYPYWWYYYYFDYWGQGTLVTVSS
VL: SSELTQDPAVSVALGQTVRITCQGDSLRSYFASWYQQKPGQAPVLVIYGKNNRPSGIPDRFSGSSSGNTASLTITGAQAEDEADYYCQSSYSSSYSYVFGGGTKLTVLG
notes: Human IgG1/2 (IgG1 CH1 and hinge, IgG2 CH2 and CH3) / lambda; made in Expi293F or CHOK1SV cells

How the values were obtained:
[1] = target: human EphA4 fibronectin type III domain 1-MBP-His protein (human, UniProt P54764 326-439; P0AEX9 29-392 = MBP); test: ELISA, domain-MBP-His captured by anti-6-His antibody
Experimental: (§1) The antibody A, the antibody B, and human IgG (Sigma-Aldrich Co. LLC) were evaluated for their binding activity against each EphA4 according to the following steps. Each well of a 96-well plate (Nunc) was coated with a rabbit anti-6-His antibody (Bethyl Laboratories, Inc.). After incubation at room temperature for 1 hour, each well was blocked with 1% BlockAce (KAC Co., Ltd.) overnight at 4° C. After washing with 0.02% Tween 20/PBS three times, each of the human EphA4 extracellular domain-, human EphA4 ligand-binding domain-, human EphA4 fibronectin type III domain 1-, and human EphA4 fibronectin type III domain 2-MBP-His proteins or the MBP-His protein (final concentration: 1 nM) was seeded in each well and incubated at room temperature for 1 hour. After washing three times, the antibody A, the antibody B, or human IgG (10 nM) was added to each well and incubated at room temperature for 1 hour. After washing three times, a horseradish peroxidase-labeled rabbit anti-human IgG Fcy fragment antibody (Jackson ImmunoResearch Laboratories, Inc.) was added thereto and incubated at room temperature for 1 hour. After washing three times, a TMBZ (3,3′,5,5′-tetramethylbenzidine, Kirkegaard & Perry Laboratories, Inc.) solution was added to each well. An equal amount of a reaction stopping solution (2 N H₂SO₄, FUJIFILM Wako Pure Chemical Corp.) was added to each well. The absorbance at 450 nm and 650 nm was read using a microplate reader (Thermo Fisher Scientific Inc.).

[2] = target: human EphA4 fibronectin type III domain 2-MBP-His protein (human, UniProt P54764 436-547; P0AEX9 29-392 = MBP); test: as above
Experimental: as §1

[3] = target: T1, human EphA4 extracellular domain-MBP-His protein (human); test: ELISA, domain-MBP-His captured by anti-6-His antibody, antibody 10 nM
T1 construct: also called human EphA4 extracellular domain (ECD); ECD
Experimental: as §1, with “An equal amount of a reaction stopping solution (2 N H₂SO₄, FUJIFILM Wako Pure Chemical Corp.) was added to each well.” left out

[4] = target: T2, human EphA4 extracellular domain-SEAP-His protein (human); test: competition ELISA, captured human EphA4 ECD-SEAP-His; competitor biotinylated human Ephrin A5-Fc (0.7 nM)
T2 construct: also called Human EphA4 extracellular domain-SEAP-His10
Experimental: (§2) The antibody A and the antibody B were evaluated for their inhibitory activity against the binding between human EphA4 and its human ligand according to the following steps. Each well of a 96-well plate (Nunc) was coated with an anti-alkaline phosphatase antibody (Thermo Fisher Scientific Inc.). After incubation overnight at 4° C., each well was blocked with 1% BlockAce (KAC Co., Ltd.) overnight at 4° C. After washing with 0.02% Tween 20/PBS three times, the human EphA4 extracellular domain-SEAP-His protein (final concentration: 10 nM) was seeded in each well and incubated at room temperature for 1 hour. After washing three times, ligands and serially diluted antibody A or antibody B (0, 0.003, 0.01, 0.03, 0.1, 0.3, 1, 3, 10, 30, 100, 300, 1000, and 3000 nM) were added to each well. The ligands used were biotinylated human Ephrin A5-Fc chimera (R&D Systems, Inc., final concentration: 0.7 nM) and biotinylated human Ephrin B3-Fc chimera (R&D Systems, Inc., final concentration: 2.3 nM). After incubation at room temperature for 1 hour and subsequent washing three times, a horseradish peroxidase-labeled streptavidin (GE Healthcare Japan Corp.) was added thereto and incubated at room temperature for 1 hour. […] The absorbance at 450 nm was read using a microplate reader (Thermo Fisher Scientific Inc.).

[5] = target: T2, human EphA4 extracellular …; test: competition ELISA, captured human EphA4 ECD-SEAP-His; competitor biotinylated human Ephrin B3-Fc (2.3 nM)
Experimental: as §2

[6] = target: T2, human EphA4 extracellular …; test: SPR (Biacore T200), EphA4 ECD-SEAP-His10 captured by anti-His antibody, antibody as analyte, 1:1 model, mean of three runs
Experimental: The binding affinity of the antibody A and the antibody B to human EphA4 was determined by surface plasmon resonance (SPR) using Biacore T200 (Cytiva). First, an anti-His antibody (Cytiva, 28-9950-56) was immobilized on sensor chip CM5. The immobilization was performed by the amine coupling method using N-hydroxysuccinimide (NHS) and N-ethyl-N′-(3-dimethylaminopropyl)carbodiimide hydrochloride (EDC). Ethanolamine was used in blocking (the sensor chip and the reagents for immobilizations were all manufactured by Cytiva). The antibody was diluted with a buffer solution for immobilization (10 mM sodium acetate, pH 4.5) into 3 µg/mL and immobilized on the sensor chip according to the protocol attached to Biacore T200. Human EphA4 extracellular domain-SEAP-His10 was diluted with a running buffer solution HBS-EP+ (Cytiva, BR-1001-69), injected onto a flow cell for 120 seconds, and captured (amount of the antibody captured: approximately 6 RU). Subsequently, the antibody A or the antibody B serially diluted in the range of 100, 50, 25, 12.5, 6.3, 3.2, 1.6, and 0 nM using HBS-EP+ was added to the sensor chip for 120 seconds. […] The experiment mentioned above was carried out three times, and an average value of each parameter was calculated.

[7] = target: T3, rat EphA4 extracellular domain-SEAP-His protein (rat, UniProt Q03137 20-547 (mouse entry)); test: ELISA: rat EphA4 extracellular domain-SEAP-His captured by anti-6-His antibody, detection with HRP anti-human IgG Fc
T3 construct: not shown: SEAP and histidine tag
Experimental: (§3) The antibody A and the antibody B were evaluated for their binding activity against each EphA4 according to the following steps. Each well of a 96-well plate (Nunc) was coated with a rabbit anti-6-His antibody (Bethyl Laboratories, Inc.). After incubation at room temperature for 1 hour, each well was blocked with 1% BlockAce (KAC Co., Ltd.) overnight at 4° C. After washing with 0.02% Tween 20/PBS three times, each of the mouse, rat, monkey and human EphA4 extracellular domain-SEAP-His proteins (final concentration: 1 nM) was seeded in each well and incubated at room temperature for 1 hour. After washing three times, the antibody A or the antibody B (0, 0.00013, 0.00064, 0.0032, 0.016, 0.08, 0.4, 2, and 10 µg/mL) was added to each well and incubated at room temperature for 1 hour. After washing three times, a horseradish peroxidase-labeled rabbit anti-human IgG Fcy fragment antibody (Jackson ImmunoResearch Laboratories, Inc.) was added thereto and incubated at room temperature for 1 hour. After washing three times, a TMBZ (3,3′,5,5′-tetramethylbenzidine, Kirkegaard & Perry Laboratories, Inc.) solution was added to each well. An equal amount of a reaction stopping solution (2 N H₂SO₄, FUJIFILM Wako Pure Chemical Corp.) was added to each well. The absorbance at 450 nm was read using a microplate reader (Thermo Fisher Scientific Inc.).

[8] = target: T2, human EphA4 extracellular …; test: ELISA: human EphA4 extracellular domain-SEAP-His captured by anti-6-His antibody, detection with HRP anti-human IgG Fc
Experimental: as §3

[9] = target: T4, mouse EphA4 extracellular domain-SEAP-His protein (mouse, UniProt Q03137 20-547); test: ELISA: mouse EphA4 extracellular domain-SEAP-His captured by anti-6-His antibody, detection with HRP anti-human IgG Fc
T4 construct: not shown: SEAP and histidine tag
Experimental: as §3

[10] = target: T5, monkey EphA4 extracellular domain-SEAP-His protein (monkey); test: ELISA: monkey EphA4 extracellular domain-SEAP-His captured by anti-6-His antibody, detection with HRP anti-human IgG Fc
T5 construct: not shown: SEAP and histidine tag
Experimental: as §3

[11] = target: T2, human EphA4 extracellular …; test: SPR (Biacore T200): human EphA4 extracellular domain-SEAP-His10 captured by anti-His antibody on CM5, antibody as analyte 1.6-100 nM, 1:1 fit
Experimental: The binding affinity of the antibody A and the antibody B to human EphA4 was determined by surface plasmon resonance (SPR) using Biacore T200 (Cytiva). First, an anti-His antibody (Cytiva, 28-9950-56) was immobilized on sensor chip CM5. The immobilization was performed by the amine coupling method using N-hydroxysuccinimide (NHS) and N-ethyl-N′-(3-dimethylaminopropyl)carbodiimide hydrochloride (EDC). Ethanolamine was used in blocking (the sensor chip and the reagents for immobilizations were all manufactured by Cytiva). The antibody was diluted with a buffer solution for immobilization (10 mM sodium acetate, pH 4.5) into 3 µg/mL and immobilized on the sensor chip according to the protocol attached to Biacore T200. Human EphA4 extracellular domain-SEAP-His10 was diluted with a running buffer solution HBS-EP+ (Cytiva, BR-1001-69), injected onto a flow cell for 120 seconds, and captured (amount of the antibody captured: approximately 6 RU). Subsequently, the antibody A or the antibody B serially diluted in the range of 100, 50, 25, 12.5, 6.3, 3.2, 1.6, and 0 nM using HBS-EP+ was added to the sensor chip for 120 seconds. Binding reaction curves were sequentially observed at the time of the addition (association phase, 120 sec) and after the completion of the addition (dissociation phase, 600 sec). After the completion of each observation, the sensor chip was regenerated by the addition of 3 M MgCl₂ (60 sec). The obtained binding reaction curves were subjected to fitting analysis using 1:1 binding models and software BIA evaluation attached to the system to calculate the binding affinity (KD = kd / ka) to human EphA4. The experiment mentioned above was carried out three times, and an average value of each parameter was calculated.

T2 sequence (chain, as listed by the source limits assumed): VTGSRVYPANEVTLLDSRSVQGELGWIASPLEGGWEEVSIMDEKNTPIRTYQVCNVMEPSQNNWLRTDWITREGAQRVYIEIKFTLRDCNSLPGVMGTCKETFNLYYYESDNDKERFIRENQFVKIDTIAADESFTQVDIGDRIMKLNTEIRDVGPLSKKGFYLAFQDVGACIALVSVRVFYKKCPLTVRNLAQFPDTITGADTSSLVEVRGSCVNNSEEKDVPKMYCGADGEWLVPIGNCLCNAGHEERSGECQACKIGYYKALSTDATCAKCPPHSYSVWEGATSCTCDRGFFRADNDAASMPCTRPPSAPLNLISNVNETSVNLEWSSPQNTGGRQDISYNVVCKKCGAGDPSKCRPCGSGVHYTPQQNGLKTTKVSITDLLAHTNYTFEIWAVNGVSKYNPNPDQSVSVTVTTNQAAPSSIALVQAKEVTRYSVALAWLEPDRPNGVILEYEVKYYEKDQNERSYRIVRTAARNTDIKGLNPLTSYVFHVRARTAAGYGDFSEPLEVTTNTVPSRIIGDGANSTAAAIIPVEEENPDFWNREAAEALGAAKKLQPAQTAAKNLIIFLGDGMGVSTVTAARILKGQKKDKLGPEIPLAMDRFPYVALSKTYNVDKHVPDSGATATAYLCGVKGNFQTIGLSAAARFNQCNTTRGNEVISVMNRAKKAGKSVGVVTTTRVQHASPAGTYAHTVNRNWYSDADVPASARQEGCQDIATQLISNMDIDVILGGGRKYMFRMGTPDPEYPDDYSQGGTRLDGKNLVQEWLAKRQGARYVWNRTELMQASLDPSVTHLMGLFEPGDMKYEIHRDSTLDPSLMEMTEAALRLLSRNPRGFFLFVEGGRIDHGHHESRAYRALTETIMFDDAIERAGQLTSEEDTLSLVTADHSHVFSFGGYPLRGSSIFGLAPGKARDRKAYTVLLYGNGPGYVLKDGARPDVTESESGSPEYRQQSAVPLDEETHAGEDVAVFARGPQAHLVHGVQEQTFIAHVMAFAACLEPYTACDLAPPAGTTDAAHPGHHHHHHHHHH
T5 sequence (chain, as listed by the source): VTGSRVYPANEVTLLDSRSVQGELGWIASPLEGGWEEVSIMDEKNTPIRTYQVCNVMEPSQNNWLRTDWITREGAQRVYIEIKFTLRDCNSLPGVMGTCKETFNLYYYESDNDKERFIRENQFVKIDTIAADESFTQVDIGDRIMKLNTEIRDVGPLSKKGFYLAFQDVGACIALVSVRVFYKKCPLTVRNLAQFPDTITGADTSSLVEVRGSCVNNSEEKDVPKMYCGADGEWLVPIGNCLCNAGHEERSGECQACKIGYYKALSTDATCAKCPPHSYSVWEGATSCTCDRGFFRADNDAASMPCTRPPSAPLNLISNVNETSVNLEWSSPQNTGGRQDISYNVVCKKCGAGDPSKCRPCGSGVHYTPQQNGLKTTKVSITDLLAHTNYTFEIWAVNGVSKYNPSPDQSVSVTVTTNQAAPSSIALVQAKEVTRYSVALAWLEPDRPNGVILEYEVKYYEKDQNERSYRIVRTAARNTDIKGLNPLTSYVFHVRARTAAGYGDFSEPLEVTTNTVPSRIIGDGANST

Binder | binding result [1] | binding result [2] | binding result [3] | IC50 [4] [nM] | IC50 [5] [nM] | Kd [6] [nM] | EC50 (read off the curve) [7] [nM] | EC50 (read off the curve) [8] [nM] | EC50 (read off the curve) [9] [nM] | EC50 (read off the curve) [10] [nM] | koff [11] [s⁻¹] | kon [11] [M⁻¹ s⁻¹]
B1 | no binding (tested: 10 nM) | no binding (tested: 10 nM) | binds | 3.9 | 3 | 0.467 | ~0.02 | ~0.02 | ~0.02 | ~0.02 | 0.000251 | 537000
B2 | no binding (tested: 10 nM) | no binding (tested: 10 nM) | binds | 4.8 | 4.1 | 0.156 | ~0.04 | ~0.04 | ~0.04 | ~0.04 | 8.01e-05 | 512000
